In patent US20210388081A1 (Memorial Sloan Kettering, published 2021):

What was measured:
[1] = target: T1, FcRL1, overexpressed on 3T3 cells (UniProt Q96LA6 17-429, limits assumed); test: phage clone on 3T3-FcRL1 cells
T1 construct: whole, on cells
T1 sequence (looked up): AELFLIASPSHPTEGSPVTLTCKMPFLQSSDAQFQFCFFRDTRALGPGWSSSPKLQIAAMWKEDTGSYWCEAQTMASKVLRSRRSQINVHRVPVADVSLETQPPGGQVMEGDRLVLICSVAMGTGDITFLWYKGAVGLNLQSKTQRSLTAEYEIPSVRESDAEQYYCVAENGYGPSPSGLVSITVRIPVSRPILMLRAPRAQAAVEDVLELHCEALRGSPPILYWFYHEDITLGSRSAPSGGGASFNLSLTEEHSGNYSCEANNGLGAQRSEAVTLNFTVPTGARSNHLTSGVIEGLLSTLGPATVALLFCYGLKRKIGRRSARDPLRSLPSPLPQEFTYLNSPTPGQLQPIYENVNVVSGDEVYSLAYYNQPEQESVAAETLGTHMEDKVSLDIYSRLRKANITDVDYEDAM

[2] = target: T2, FcRL3, overexpressed on 3T3 cells (UniProt Q96P31 18-734, limits assumed); test: phage clone on 3T3-FcRL3 cells
T2 construct: whole, on cells
T2 sequence (looked up): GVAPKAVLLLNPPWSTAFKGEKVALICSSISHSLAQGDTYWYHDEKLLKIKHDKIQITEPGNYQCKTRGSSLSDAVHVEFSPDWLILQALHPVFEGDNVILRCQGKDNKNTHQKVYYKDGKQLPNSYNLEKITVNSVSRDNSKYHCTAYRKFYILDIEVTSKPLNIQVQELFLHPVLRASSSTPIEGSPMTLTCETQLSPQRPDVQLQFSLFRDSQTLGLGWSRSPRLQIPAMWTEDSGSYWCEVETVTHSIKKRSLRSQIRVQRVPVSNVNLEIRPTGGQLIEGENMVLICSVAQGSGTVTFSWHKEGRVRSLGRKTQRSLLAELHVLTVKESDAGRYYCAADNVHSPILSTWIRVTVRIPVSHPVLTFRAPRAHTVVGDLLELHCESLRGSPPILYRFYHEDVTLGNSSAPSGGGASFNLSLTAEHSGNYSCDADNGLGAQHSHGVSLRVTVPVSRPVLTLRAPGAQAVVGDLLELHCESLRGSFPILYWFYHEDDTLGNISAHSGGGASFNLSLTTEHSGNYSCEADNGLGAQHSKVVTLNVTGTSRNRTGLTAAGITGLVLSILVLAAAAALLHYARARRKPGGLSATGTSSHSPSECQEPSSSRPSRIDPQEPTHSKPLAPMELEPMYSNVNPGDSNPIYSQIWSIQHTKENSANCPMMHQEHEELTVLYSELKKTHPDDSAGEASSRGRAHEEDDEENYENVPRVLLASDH

[3] = target: T3, FcRL4, overexpressed on 3T3 cells (UniProt Q96PJ5 20-515, limits assumed); test: phage clone on 3T3-FcRL4 cells
T3 construct: whole, on cells
T3 sequence (looked up): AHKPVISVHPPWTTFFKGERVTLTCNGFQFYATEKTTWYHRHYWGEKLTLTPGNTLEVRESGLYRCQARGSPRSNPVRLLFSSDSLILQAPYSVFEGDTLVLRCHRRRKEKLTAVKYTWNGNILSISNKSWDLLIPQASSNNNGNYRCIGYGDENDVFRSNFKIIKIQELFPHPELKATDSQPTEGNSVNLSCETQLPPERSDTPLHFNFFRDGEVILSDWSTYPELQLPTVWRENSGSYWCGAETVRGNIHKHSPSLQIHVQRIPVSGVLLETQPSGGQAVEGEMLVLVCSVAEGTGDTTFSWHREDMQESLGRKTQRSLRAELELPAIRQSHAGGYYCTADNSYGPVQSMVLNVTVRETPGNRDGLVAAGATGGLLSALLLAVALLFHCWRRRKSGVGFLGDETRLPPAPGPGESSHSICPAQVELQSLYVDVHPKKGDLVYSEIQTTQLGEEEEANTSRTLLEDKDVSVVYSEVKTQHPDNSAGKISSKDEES

[4] = target: T4, FcRL6, overexpressed on 3T3 cells (UniProt Q6DN72 20-434, limits assumed); test: phage clone on 3T3-FcRL6 cells
T4 construct: whole, on cells
T4 sequence (looked up): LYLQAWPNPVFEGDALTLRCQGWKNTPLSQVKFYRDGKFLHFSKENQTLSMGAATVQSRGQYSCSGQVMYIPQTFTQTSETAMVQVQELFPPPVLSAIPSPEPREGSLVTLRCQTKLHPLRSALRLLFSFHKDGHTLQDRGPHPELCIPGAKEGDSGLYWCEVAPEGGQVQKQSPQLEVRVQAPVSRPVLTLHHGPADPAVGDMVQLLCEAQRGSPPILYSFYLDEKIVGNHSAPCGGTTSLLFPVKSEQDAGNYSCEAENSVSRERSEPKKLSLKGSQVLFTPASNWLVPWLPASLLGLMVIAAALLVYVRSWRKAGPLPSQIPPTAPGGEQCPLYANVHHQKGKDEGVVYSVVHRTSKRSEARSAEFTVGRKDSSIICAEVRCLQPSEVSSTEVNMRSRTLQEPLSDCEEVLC

Measured: binding result

B1: ET200-028 (scFv)
scFv: QSVLTQPPAASGTPGQRVTISCSGGVSNIGSGALNWYQQLPGTAPKLLIYSYNQRPSGVSDRFSGSRSATSASLAISGLQSEDEADYYCATWDDSVNGWVFGGGTKLTVLGSRGGGGSGGGGSGGGGSLEMAQVQLVQSGAEVKKPGDSVKVSCKPSGYNFLNYGINWVRQAPGQGLEWMGWISTYTGNTNYAQKLQGRVTFTTDTSTSTAYMEMRSLRSDDTAVYYCARDLYYYEGVDYWGQGTLVTVSSTSGQAGQHHHHHHGAYPYDVPDYAS
notes: screened as phage clone; entry is VL-linker-VH-His tag-HA tag
no binding: all assays above

B2: ET200-023 (scFv)
scFv: LPVLTQPPSVSVAPGKTARITCGGNNIGSKSVHWYQQKPGQAPVLVVYADSDRPSGIPERFSGSNSGNTATLTISRVEAGDEADYYCQVWDSSSYHNYVFGTGTKVTVLGSRGGGGSGGGGSGGGGSLEMAEVQLVQSGAEVKKPGASVKVSCKASGYTFTSYGISWVRQAPGQGLEWMGWISAYNGNTNYAQKLQGRVTMTTDTSTSTAYMELSSLRSEDTAMYYCARYWGFGVSDRWGQGTLVTVSSTSGQAGQHHHHHHGAYPYDVPDYAS
notes: as for B1
no binding: all assays above

B3: ET200-021 (scFv)
scFv: QSVLTQPPSVSAAPGQKVTISCSGSNSNIGNNYVSWYQQLPGTAPKLLIYDNNKRPSGIPDRFSGSRSGTSATLGITGLQTGDEADYYCGTWNTTVTPGYVFGTGTKVTVLGSRGGGGSGGGGSGGGGSLEMAEVQLVQSGAEVKKPGASVKVSCKASGYTFTSYGISWVRQAPGQGLEWMGWISAYNGNTNYAQKLQGRVTMTTDTSTSTAYMELRSLRSDDTAMYYCARSVYDLDTWGQGTLVTVSSTSGQAGQHHHHHHGAYPYDVPDYAS
notes: as for B1
no binding: all assays above

B4: ET200-029 (scFv)
scFv: QAVLTQPPSVSVAPGKTARVTCGGNNIGSESVHWYQQKPGQAPVLVIYYDTDRPSGIPERFSGSHSGTTATLTISRVEAGDEADYYCQVWDSSRDHVVFGGGTKLTVLGSRGGGGSGGGGSGGGGSLEMAQVQLVQSGGGVVQPGRSLRLSCAASGFTFSSYAMHWVRQAPGKGLEWVAVISYDGSNKYYADSVKGLFTISRDNSKNTLYLQMNSLRAEDTAVYYCARSYFTSGFYDYWGQGTLVTVSSTSGQAGQHHHHHHGAYPYDVPDYAS
notes: as for B1
no binding: all assays above

B5: ET200-039 (scFv)
scFv: NFMLTQPHSVSESPGKTVTISCTRSSGSIASNYVQWYQQRPGSSPTTVIYEDNQRPSGVPDRFSGSIDSSSNSASLTISGLKTEDEADYYCQSYDSSNWVFGGGTKLTVLGSRGGGGSGGGGSGGGGSLEMAEVQLVQSGAEVKKPGSSVKVSCKASGGTFSSYAISWVRQAPGQGLEWMGGIIPIFGTANYAQKFQGRVTITADESTSTAYMELSSLRSEDTAVYYCARSNYYYNDYWGQGTLVTVSSTSGQAGQHHHHHHGAYPYDVPDYAS
notes: screened as phage clone; entry is VL-linker-VH-His tag-HA tag; also called ET200-39
no binding: all assays above

B6: ET200-035 (scFv)
scFv: NFMLTQPHSVSESPGKTVTISCTRSSGSIASNYVQWYQQRPGSAPTTVIYEDNQRPSGVPDRFSGSIDSSSNSASLTISGLKTEDEADYYCQSYDSTNWVFGGGTKLTVLGSRGGGGSGGGGSGGGGSLEMAQVQLVQSGAEVKKPGSSVKVSCKASGGTFSSYAISWVRQAPGQGLEWMGGIIPIFGTANYAQKFQGRVTITADESTSTAYMELSSLRSEDTAVYYCARYNYYFNDYWGQGTLVTVSSTSGQAGQHHHHHHGAYPYDVPDYAS
notes: as for B1
no binding: all assays above

B7: ET200-026 (scFv)
scFv: NFMLTQPHSVSESPGKTVTISCTGSSGSIASNYVQWYQQRPGSAPTTVIYEDNQRPSGVPDRFSGSIDSSSNSASLTISGLKTEDEADYYCQSYDSSNWVFGGGTKLTVLGSRGGGGSGGGGSGGGGSLEMAEVQLVQSGAEVKKPGSSVKVSCKASGGTFSSYAISWVRQAPGQGLEWMGGIIPIFGTANYAQKFQGRVTITADESTSTAYMELSSLRSEDTAVYYCARNNHYYNDYWGQGTLVTVSSTSGQAGQHHHHHHGAYPYDVPDYAS
notes: as for B1
no binding: all assays above

B8: ET200-027 (scFv)
scFv: QSVLTQPPSVSGAPGQGVTIPCTGSSSNIGAGYDVHWYQQLPGTAPKLLIYGNNNRPSGVPDRFSGSRSGSSASLAITGLQAEDEADYYCQSYDSSLSDVVFGGGTKVTVLGSRGGGGSGGGGSGGGGSLEMAEVQLVQSGAEVKKPGATVKISCKVSGYTFTDYYMHWVQQAPGKGLEWMGLVDPEDGETIYAEKFQGRVTITADTSTDTAYMELSSLRSEDTAVYYCARYWSYSFDYLYMPEGNDWWGQGTLVTVSSTSGQAGQHHHHHHGAYPYDVPDYAS
notes: as for B1
no binding: all assays above

B9: ET200-030 (scFv)
scFv: QSVVTQPPSVSGAPGQRVTISCTGSSSNIGAGYDVNWYQQFPGTAPKLLIYGNSNRPSGVPDRFSGSKSGTSASLAITGLQAEDEADYYCQSYDSSLSGSYVFGTGTKVTVLGSRGGGGSGGGGSGGGGSLEMAQMQLVQSGAEVKKPGASVKVSCKASGYTLTELSMHWVRQAPGKGLEWMGGFDPEDGETIYAQKFQGRVTMTEDTSTDTAYMELSSLRSEDTAVYYCARMSSMYYDWGQGTLVTVSSTSGQAGQHHHHHHGAYPYDVPDYAS
notes: as for B1
no binding: all assays above

B10: ET200-022 (scFv)
scFv: QSVVTQPPSVSAAPGQKVTISCSGSSSNIGNNYVSWYQQLPGTAPKLLIYDNNKRPSGIPDRFSGSKSGTSATLGITGLQTGDEADYYCGTWDSSLGAPYVFGTGTKVTVLGSRGGGGSGGGGSGGGGSLEMAEVQLVQSWGGSEQPGRSLRLSCAASGFTFDDYAMHWVRQAPGKGLEWVSGISWNSGSIGYADSVKGRFTISRDNAKNSLYLQMNSLRAEDTAMYYCARYRQVGSAYDSWGQGTLVTVSSTSGQAGQHHHHHHGAYPYDVPDYAS
notes: as for B1
no binding: all assays above
